# Data as given in patent US20220406376A1 (MacroGenics, published 2022).
# B1: TRIDENT-A3 (bispecific antibody, human IgG1, kappa, L234A L235A)
# chain 1: DIQMTQSPSSLSASVGDRVTITCRPSQDISNYLNWYQQKPDKTVKLLIYYTSRLRSGVPSRFSGSGSGTDFTFTISSLQPEDIATYFCQQGDTLPYTFGQGTKLEIKGGGSGGGGQVQLVQSGAEVKKPGASVKVSCKASGYTFTSYWINWVKQAPGQGLEWIGNIYPSDSYTNYNQKFKDKATITADKSTSTAYMELSSLRSEDTAVYYCTRDYGSAYSYSLWGQGTTVTVSSASTKGEVAACEKEVAALEKEVAALEKEVAALEKGGGDKTHTCPPCPAPEAAGGPSVFLFPPKPKDTLMISRTPEVTCVVVDVSHEDPEVKFNWYVDGVEVHNAKTKPREEQYNSTYRVVSVLTVLHQDWLNGKEYKCKVSNKALPAPIEKTISKAKGQPREPQVYTLPPSREEMTKNQVSLWCLVKGFYPSDIAVEWESNGQPENNYKTTPPVLDSDGSFFLYSKLTVDKSRWQQGNVFSCSVMHEALHNHYTQKSLSLSPGK
# chain 2: DIQMTQSPSSLSASVGDRVTITCRPSQDISNYLNWYQQKPDKTVKLLIYYTSRLRSGVPSRFSGSGSGTDFTFTISSLQPEDIATYFCQQGDTLPYTFGQGTKLEIKGGGSGGGGQVQLVQSGAEVKKPGASVKVSCKASGYTFTSYWINWVKQAPGQGLEWIGNIYPSDSYTNYNQKFKDKATITADKSTSTAYMELSSLRSEDTAVYYCTRDYGSAYSYSLWGQGTTVTVSSASTKGKVAACKEKVAALKEKVAALKEKVAALKE
# heavy: QVQLVQSGAEVKKPGASVKVSCKASGYTFTNYGMNWVRQAPGQGLEWMGWINTNIGEPTYTEEFKGRVTMTRDTSISTAYMELSRLRSDDTAVYYCARDDGYGNRVSYWGQGTLVTVSSASTKGPSVFPLAPSSKSTSGGTAALGCLVKDYFPEPVTVSWNSGALTSGVHTFPAVLQSSGLYSLSSVVTVPSSSLGTQTYICNVNHKPSNTKVDKRVEPKSCDKTHTCPPCPAPEAAGGPSVFLFPPKPKDTLMISRTPEVTCVVVDVSHEDPEVKFNWYVDGVEVHNAKTKPREEQYNSTYRVVSVLTVLHQDWLNGKEYKCKVSNKALPAPIEKTISKAKGQPREPQVYTLPPSREEMTKNQVSLSCAVKGFYPSDIAVEWESNGQPENNYKTTPPVLDSDGSFFLVSKLTVDKSRWQQGNVFSCSVMHEALHNRYTQKSLSLSPGK
# light: DIQMTQSPSSLSASVGDRVTITCKASQDISNYLSWFQQKPGKAPKTLIYRANRLQSGVPSRFSGSGSGTDFTLTISSLQPEDFATYYCLQHDEFPWTFGQGTKLEIKRTVAAPSVFIFPPSDEQLKSGTASVVCLLNNFYPREAKVQWKVDNALQSGNSQESVTEQDSKDSTYSLSSTLTLSKADYEKHKVYACEVTHQGLSSPVTKSFNRGEC
# B2: TRIDENT-A (bispecific antibody, human IgG1, kappa, L234A L235A)
# chain 1: DIQMTQSPSSLSASVGDRVTITCRPSQDISNYLNWYQQKPDKTVKLLIYYTSRLRSGVPSRFSGSGSGTDFTFTISSLQPEDIATYFCQQGDTLPYTFGQGTKLEIKGGGSGGGGQVQLVQSGAEVKKPGASVKVSCKASGYTFTSYWINWVKQAPGQGLEWIGNIYPSDSYTNYNQKFKDKATITADKSTSTAYMELSSLRSEDTAVYYCTRDYGSSYSFDYWGQGTTVTVSSASTKGEVAACEKEVAALEKEVAALEKEVAALEKGGGDKTHTCPPCPAPEAAGGPSVFLFPPKPKDTLMISRTPEVTCVVVDVSHEDPEVKFNWYVDGVEVHNAKTKPREEQYNSTYRVVSVLTVLHQDWLNGKEYKCKVSNKALPAPIEKTISKAKGQPREPQVYTLPPSREEMTKNQVSLWCLVKGFYPSDIAVEWESNGQPENNYKTTPPVLDSDGSFFLYSKLTVDKSRWQQGNVFSCSVMHEALHNHYTQKSLSLSPGK
# chain 2: DIQMTQSPSSLSASVGDRVTITCRPSQDISNYLNWYQQKPDKTVKLLIYYTSRLRSGVPSRFSGSGSGTDFTFTISSLQPEDIATYFCQQGDTLPYTFGQGTKLEIKGGGSGGGGQVQLVQSGAEVKKPGASVKVSCKASGYTFTSYWINWVKQAPGQGLEWIGNIYPSDSYTNYNQKFKDKATITADKSTSTAYMELSSLRSEDTAVYYCTRDYGSSYSFDYWGQGTTVTVSSASTKGKVAACKEKVAALKEKVAALKEKVAALKE
# heavy: QVQLVQSGAEVKKPGASVKVSCKASGYTFTNYGMNWVRQAPGQGLEWMGWINTNIGEPTYTEEFKGRVTMTRDTSISTAYMELSRLRSDDTAVYYCARDDGYGNRVSYWGQGTLVTVSSASTKGPSVFPLAPSSKSTSGGTAALGCLVKDYFPEPVTVSWNSGALTSGVHTFPAVLQSSGLYSLSSVVTVPSSSLGTQTYICNVNHKPSNTKVDKRVEPKSCDKTHTCPPCPAPEAAGGPSVFLFPPKPKDTLMISRTPEVTCVVVDVSHEDPEVKFNWYVDGVEVHNAKTKPREEQYNSTYRVVSVLTVLHQDWLNGKEYKCKVSNKALPAPIEKTISKAKGQPREPQVYTLPPSREEMTKNQVSLSCAVKGFYPSDIAVEWESNGQPENNYKTTPPVLDSDGSFFLVSKLTVDKSRWQQGNVFSCSVMHEALHNRYTQKSLSLSPGK
# light: DIQMTQSPSSLSASVGDRVTITCKASQDISNYLSWFQQKPGKAPKTLIYRANRLQSGVPSRFSGSGSGTDFTLTISSLQPEDFATYYCLQHDEFPWTFGQGTKLEIKRTVAAPSVFIFPPSDEQLKSGTASVVCLLNNFYPREAKVQWKVDNALQSGNSQESVTEQDSKDSTYSLSSTLTLSKADYEKHKVYACEVTHQGLSSPVTKSFNRGEC
# B3: TRIDENT-A2 (bispecific antibody, human IgG1, kappa, L234A L235A)
# chain 1: DIQMTQSPSSLSASVGDRVTITCRPSQDISNYLNWYQQKPDKTVKLLIYYTSRLRSGVPSRFSGSGSGTDFTFTISSLQPEDIATYFCQQGDTLPYTFGQGTKLEIKGGGSGGGGQVQLVQSGAEVKKPGASVKVSCKASGYTFTSYWINWVKQAPGQGLEWIGNIYPSDSYTNYNQKFKDKATITADKSTSTAYMELSSLRSEDTAVYYCTRDYGSAYSMSTWGQGTTVTVSSASTKGEVAACEKEVAALEKEVAALEKEVAALEKGGGDKTHTCPPCPAPEAAGGPSVFLFPPKPKDTLMISRTPEVTCVVVDVSHEDPEVKFNWYVDGVEVHNAKTKPREEQYNSTYRVVSVLTVLHQDWLNGKEYKCKVSNKALPAPIEKTISKAKGQPREPQVYTLPPSREEMTKNQVSLWCLVKGFYPSDIAVEWESNGQPENNYKTTPPVLDSDGSFFLYSKLTVDKSRWQQGNVFSCSVMHEALHNHYTQKSLSLSPGK
# chain 2: DIQMTQSPSSLSASVGDRVTITCRPSQDISNYLNWYQQKPDKTVKLLIYYTSRLRSGVPSRFSGSGSGTDFTFTISSLQPEDIATYFCQQGDTLPYTFGQGTKLEIKGGGSGGGGQVQLVQSGAEVKKPGASVKVSCKASGYTFTSYWINWVKQAPGQGLEWIGNIYPSDSYTNYNQKFKDKATITADKSTSTAYMELSSLRSEDTAVYYCTRDYGSAYSMSTWGQGTTVTVSSASTKGKVAACKEKVAALKEKVAALKEKVAALKE
# heavy: QVQLVQSGAEVKKPGASVKVSCKASGYTFTNYGMNWVRQAPGQGLEWMGWINTNIGEPTYTEEFKGRVTMTRDTSISTAYMELSRLRSDDTAVYYCARDDGYGNRVSYWGQGTLVTVSSASTKGPSVFPLAPSSKSTSGGTAALGCLVKDYFPEPVTVSWNSGALTSGVHTFPAVLQSSGLYSLSSVVTVPSSSLGTQTYICNVNHKPSNTKVDKRVEPKSCDKTHTCPPCPAPEAAGGPSVFLFPPKPKDTLMISRTPEVTCVVVDVSHEDPEVKFNWYVDGVEVHNAKTKPREEQYNSTYRVVSVLTVLHQDWLNGKEYKCKVSNKALPAPIEKTISKAKGQPREPQVYTLPPSREEMTKNQVSLSCAVKGFYPSDIAVEWESNGQPENNYKTTPPVLDSDGSFFLVSKLTVDKSRWQQGNVFSCSVMHEALHNRYTQKSLSLSPGK
# light: DIQMTQSPSSLSASVGDRVTITCKASQDISNYLSWFQQKPGKAPKTLIYRANRLQSGVPSRFSGSGSGTDFTLTISSLQPEDFATYYCLQHDEFPWTFGQGTKLEIKRTVAAPSVFIFPPSDEQLKSGTASVVCLLNNFYPREAKVQWKVDNALQSGNSQESVTEQDSKDSTYSLSSTLTLSKADYEKHKVYACEVTHQGLSSPVTKSFNRGEC
# B4: TRIDENT-A4 (bispecific antibody, human IgG1, kappa, L234A L235A)
# chain 1: DIQMTQSPSSLSASVGDRVTITCRPSQDISNYLNWYQQKPDKTVKLLIYYTSRLRSGVPSRFSGSGSGTDFTFTISSLQPEDIATYFCQQGDTLPYTFGQGTKLEIKGGGSGGGGQVQLVQSGAEVKKPGASVKVSCKASGYTFTSYWINWVKQAPGQGLEWIGNIYPSDSYTNYNQKFKDKATITADKSTSTAYMELSSLRSEDTAVYYCTRDYGSSYSYNVWGQGTTVTVSSASTKGEVAACEKEVAALEKEVAALEKEVAALEKGGGDKTHTCPPCPAPEAAGGPSVFLFPPKPKDTLMISRTPEVTCVVVDVSHEDPEVKFNWYVDGVEVHNAKTKPREEQYNSTYRVVSVLTVLHQDWLNGKEYKCKVSNKALPAPIEKTISKAKGQPREPQVYTLPPSREEMTKNQVSLWCLVKGFYPSDIAVEWESNGQPENNYKTTPPVLDSDGSFFLYSKLTVDKSRWQQGNVFSCSVMHEALHNHYTQKSLSLSPGK
# chain 2: DIQMTQSPSSLSASVGDRVTITCRPSQDISNYLNWYQQKPDKTVKLLIYYTSRLRSGVPSRFSGSGSGTDFTFTISSLQPEDIATYFCQQGDTLPYTFGQGTKLEIKGGGSGGGGQVQLVQSGAEVKKPGASVKVSCKASGYTFTSYWINWVKQAPGQGLEWIGNIYPSDSYTNYNQKFKDKATITADKSTSTAYMELSSLRSEDTAVYYCTRDYGSSYSYNVWGQGTTVTVSSASTKGKVAACKEKVAALKEKVAALKEKVAALKE
# heavy: QVQLVQSGAEVKKPGASVKVSCKASGYTFTNYGMNWVRQAPGQGLEWMGWINTNIGEPTYTEEFKGRVTMTRDTSISTAYMELSRLRSDDTAVYYCARDDGYGNRVSYWGQGTLVTVSSASTKGPSVFPLAPSSKSTSGGTAALGCLVKDYFPEPVTVSWNSGALTSGVHTFPAVLQSSGLYSLSSVVTVPSSSLGTQTYICNVNHKPSNTKVDKRVEPKSCDKTHTCPPCPAPEAAGGPSVFLFPPKPKDTLMISRTPEVTCVVVDVSHEDPEVKFNWYVDGVEVHNAKTKPREEQYNSTYRVVSVLTVLHQDWLNGKEYKCKVSNKALPAPIEKTISKAKGQPREPQVYTLPPSREEMTKNQVSLSCAVKGFYPSDIAVEWESNGQPENNYKTTPPVLDSDGSFFLVSKLTVDKSRWQQGNVFSCSVMHEALHNRYTQKSLSLSPGK
# light: DIQMTQSPSSLSASVGDRVTITCKASQDISNYLSWFQQKPGKAPKTLIYRANRLQSGVPSRFSGSGSGTDFTLTISSLQPEDFATYYCLQHDEFPWTFGQGTKLEIKRTVAAPSVFIFPPSDEQLKSGTASVVCLLNNFYPREAKVQWKVDNALQSGNSQESVTEQDSKDSTYSLSSTLTLSKADYEKHKVYACEVTHQGLSSPVTKSFNRGEC
# Legend:
# [1] = molecular target: T1, HER2/neu on the surface of target cells (N87, JIMT-1, MCF-7, MDA-MB231) (UniProt P04626 23-1255, limits assumed); assay: flow cytometry on MCF-7 cells, anti-hFc APC MFI
# T1 construct: whole, on cells
# [2] = molecular target: T1, HER2/neu on the surface of target cells …; assay: flow cytometry on N87 cells, anti-hFc APC MFI
# [3] = molecular target: T2, CD137 on the surface of cells (activated human T cells; engineered CHO cells) (human, UniProt Q07011 24-255); assay: flow cytometry on activated pan T cells (donor D46433, CD8 PE), anti-hFc APC MFI
# T2 construct: whole, on cells; also called human CD137; cell surface expressed CD137
# T2 sequence (Q07011 24-255, change not shown): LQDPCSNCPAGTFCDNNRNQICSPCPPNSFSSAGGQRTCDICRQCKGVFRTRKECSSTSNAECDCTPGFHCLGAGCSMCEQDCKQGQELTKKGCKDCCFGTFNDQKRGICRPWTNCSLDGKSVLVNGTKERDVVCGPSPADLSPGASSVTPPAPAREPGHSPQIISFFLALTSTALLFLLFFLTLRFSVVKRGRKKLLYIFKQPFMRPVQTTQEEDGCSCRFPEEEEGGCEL
# [4] = molecular target: T1, HER2/neu on the surface of target cells …; assay: flow cytometry on JIMT-1 cells, anti-hFc APC MFI
Binder,EC50 (read off the curve) [1] [nM],EC50 (read off the curve) [2] [nM],EC50 (read off the curve) [3] [nM],EC50 (read off the curve) [4] [nM]
B1,~0.2,~1,~0.05,~0.7
B2,~0.2,~1,~0.06,~0.9
B3,~0.2,~1,~0.04,~0.7
B4,~0.2,~1,~0.05,~0.7
